The text below walks through data of patent US20180118846A1.

Common to all, as to test: cell-based or functional assay
For test [1], the target named is CD19 (human) (UniProt P15391).
Test [2] deals with HLA-DR (human).
Test [3] deals with CD20 (human) (UniProt P11836).
Test [4] concerns the target CEACAM6 (human) (UniProt P40199).
The target in test [5] is CD22 (human) (UniProt P20273).
Test [6] concerns the target CEACAM5 (human) (UniProt P06731).

CD20 (human), sequence (P11836 whole entry): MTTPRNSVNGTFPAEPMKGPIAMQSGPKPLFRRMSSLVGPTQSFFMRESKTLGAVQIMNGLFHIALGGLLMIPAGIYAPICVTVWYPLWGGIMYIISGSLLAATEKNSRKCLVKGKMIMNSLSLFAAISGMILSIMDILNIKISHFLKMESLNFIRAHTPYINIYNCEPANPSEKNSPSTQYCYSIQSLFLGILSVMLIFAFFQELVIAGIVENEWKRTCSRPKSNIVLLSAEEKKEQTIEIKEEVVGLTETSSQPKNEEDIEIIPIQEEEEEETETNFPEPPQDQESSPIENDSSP
CD19 (human), sequence (P15391 20-556): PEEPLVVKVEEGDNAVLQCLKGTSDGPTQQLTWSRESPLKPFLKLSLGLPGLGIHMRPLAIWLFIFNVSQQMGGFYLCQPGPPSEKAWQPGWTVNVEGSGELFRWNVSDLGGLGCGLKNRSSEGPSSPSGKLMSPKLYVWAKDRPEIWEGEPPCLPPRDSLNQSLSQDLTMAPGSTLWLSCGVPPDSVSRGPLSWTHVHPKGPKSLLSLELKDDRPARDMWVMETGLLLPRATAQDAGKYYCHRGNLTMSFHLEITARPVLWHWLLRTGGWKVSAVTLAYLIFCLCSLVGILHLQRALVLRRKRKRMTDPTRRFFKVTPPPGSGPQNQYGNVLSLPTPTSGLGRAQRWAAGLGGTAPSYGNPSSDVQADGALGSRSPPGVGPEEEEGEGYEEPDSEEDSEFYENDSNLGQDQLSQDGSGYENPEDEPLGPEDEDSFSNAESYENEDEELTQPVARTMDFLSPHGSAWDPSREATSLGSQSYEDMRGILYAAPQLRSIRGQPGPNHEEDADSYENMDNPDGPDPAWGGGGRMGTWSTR
CEACAM5 (human), sequence (P06731 35-702): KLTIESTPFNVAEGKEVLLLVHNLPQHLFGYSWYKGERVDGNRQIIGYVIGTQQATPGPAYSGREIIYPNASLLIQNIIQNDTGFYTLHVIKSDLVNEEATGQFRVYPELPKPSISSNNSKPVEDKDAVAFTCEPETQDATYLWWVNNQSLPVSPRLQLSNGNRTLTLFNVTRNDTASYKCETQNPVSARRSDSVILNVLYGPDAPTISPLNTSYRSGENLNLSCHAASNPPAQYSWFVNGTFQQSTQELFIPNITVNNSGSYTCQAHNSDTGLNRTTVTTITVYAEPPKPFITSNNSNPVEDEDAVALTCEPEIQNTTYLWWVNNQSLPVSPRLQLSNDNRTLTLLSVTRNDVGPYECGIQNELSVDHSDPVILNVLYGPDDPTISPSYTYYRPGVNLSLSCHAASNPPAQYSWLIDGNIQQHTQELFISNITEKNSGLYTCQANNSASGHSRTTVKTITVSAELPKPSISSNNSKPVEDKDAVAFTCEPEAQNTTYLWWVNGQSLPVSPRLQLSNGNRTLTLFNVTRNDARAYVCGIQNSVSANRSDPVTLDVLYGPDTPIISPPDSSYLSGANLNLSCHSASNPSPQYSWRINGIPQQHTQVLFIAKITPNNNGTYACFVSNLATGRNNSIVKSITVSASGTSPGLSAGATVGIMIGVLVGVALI
CEACAM6 (human), sequence (P40199 35-320): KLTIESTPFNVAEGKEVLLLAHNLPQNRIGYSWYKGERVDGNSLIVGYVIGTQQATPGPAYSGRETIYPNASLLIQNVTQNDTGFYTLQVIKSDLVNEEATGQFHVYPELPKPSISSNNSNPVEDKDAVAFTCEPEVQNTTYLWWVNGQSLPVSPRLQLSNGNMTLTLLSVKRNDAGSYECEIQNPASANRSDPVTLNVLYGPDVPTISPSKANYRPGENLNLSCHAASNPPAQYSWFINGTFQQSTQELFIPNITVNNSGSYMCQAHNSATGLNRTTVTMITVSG

“(19)-3s, anti-CD19 x anti-CD3 DNL complex (two CH1-DDD2-Fab-hA19 + one scFv-AD2-Okt3) (bispecific antibody)”: in test [1], the % of cell population in T cell-B cell association (CD3+CD20+) at 0.1 µg/mL (19)-3s was more than 25%; the T-cell mediated killing of Daudi, LysisMax was 60%; the T-cell mediated killing of Nalm6, LysisMax worked out at 93%; the T-cell mediated killing of Namalwa, LysisMax stood at 60%. In test [1], this substance came in with a T-cell mediated killing of Raji, IC50 of 3000 pM; a T-cell mediated killing of Raji, LysisMax of 41%; a T-cell mediated killing of Ramos, IC50 of 0.17 pM; a T-cell mediated killing of Ramos, LysisMax of 79%. In test [1], the association of Daudi cells with T cells after (19)-3s is more than 90%; the co-binding of Daudi and T cells, % CD20+/CD7+ flow events after (19)-3s was determined as 45.5%; the concentration at saturation of (19)-3s-mediated cell-to-cell association (Jurkat/Daudi) was 0.037 to 0.111 µg/mL; the ex vivo re-directed T-cell killing of Daudi, IC50 came out at 1 pM. In test [1], this substance had an ex vivo re-directed T-cell killing of Jeko-1, IC50 of 3000 pM; an ex vivo re-directed T-cell killing of Nalm-6, IC50 of 6 pM; an ex vivo re-directed T-cell killing of Namalwa, IC50 of 63 pM; an ex vivo re-directed T-cell killing of Raji, IC50 of more than 3000 pM. Further, in test [1], the ex vivo re-directed T-cell killing of Ramos, IC50 amounted to 2 pM.
In test [2], “(C2)-3s, anti-HLA-DR x anti-CD3 DNL complex (two CH1-DDD2-Fab-hL243 + one scFv-AD2-Okt3) (bispecific antibody)” registered a T-cell mediated killing of Jeko-1, LysisMax of 88%; an ex vivo re-directed T-cell killing of Jeko-1, IC50 of 20 pM; an ex vivo re-directed T-cell killing of Ramos, IC50 of 2 pM.
In test [3], “(20)-3s, anti-CD20 x anti-CD3 DNL complex (two CH1-DDD2-Fab-hA20 + one scFv-AD2-Okt3) (bispecific antibody)” gave a T-cell mediated killing of Daudi, IC50 of less than 0.3 pM; a T-cell mediated killing of Daudi, LysisMax of 90%; a T-cell mediated killing of Jeko, LysisMax of 90%; a T-cell mediated killing of Namalwa, LysisMax of 53%. Also, in test [3], the ex vivo re-directed T-cell killing of Daudi, IC50 was 0.3 pM; the ex vivo re-directed T-cell killing of Jeko-1, IC50 amounted to 1 pM; the ex vivo re-directed T-cell killing of Namalwa, IC50 was 30 pM; the ex vivo re-directed T-cell killing of Ramos, IC50 came to 0.4 pM.
Take “(15)-3s, anti-CEACAM6 x anti-CD3 DNL complex (two CH1-DDD2-Fab-hMN-15 + one scFv-AD2-Okt3) (bispecific antibody)”: the T-cell mediated lysis of NCI-N87, IC50 in test [4] was 3 pM.
In test [5], “(22)-3s, anti-CD22 x anti-CD3 DNL complex (two CH1-DDD2-Fab-hLL2 + one scFv-AD2-Okt3) (bispecific antibody)” gave a T-cell mediated lysis of Daudi, IC50 of 5 pM; a T-cell mediated lysis of Daudi, LysisMax of 60%; an ex vivo re-directed T-cell killing of Daudi, IC50 of 6 pM; an ex vivo re-directed T-cell killing of Namalwa, IC50 of more than 3000 pM.
Consider “(14)-3s, anti-CEACAM5 x anti-CD3 DNL complex (two CH1-DDD2-Fab-hMN-14 + one scFv-AD2-Okt3) (bispecific antibody)”, for which, in test [6], the T-cell mediated lysis of LS-174T, IC50 was found to be 2 pM.
